The results in this text go back to patent US20230250461A1.

Assay [1] has as its target IvaP from Vibrio cholerae, the alkaline serine protease corresponding to the gene VC 0157 (purified) (Vibrio cholerae). As to the kind of experiment: cell-based or functional assay.
The target is the same in assay [2]. As to the kind of experiment: solvatochromic dye fluorescence, plate reader; I9-dye conjugate 3 µM, IvaP 1 µM (FIG. 7A).
The target is the same in assay [3]. As to the kind of experiment: solvatochromic dye fluorescence, multi-well plate reader; probe 3 µM, IvaP 1 µM preincubated with PMSF (FIG. 9B).

Regarding I9 E123C-MDCC conjugate (peptide), the decrease in fluorescence intensity in assay [1] was 4 fold.
In assay [2], I9 I128C-IANBD conjugate (peptide) had a relative fluorescence change (Fbound/Funbound) of 2 fold. The same substance gave an increase in fluorescence intensity in assay [3] of 2 fold.
